Three proteins from paper PMC7746861, “Acetate Metabolism in Archaea: Characterization of an Acetate Transporter and of Enzymes Involved in Acetate Activation and Gluconeogenesis in Haloferax volcanii” (Frontiers in Microbiology, 2020) can be followed below.

Substrate in data set [1]: CC(=O)C(=O)O
Put plainly: discontinuous PEP formation assay. The conditions noted are these: ATP, MgCl2, DTE, 2 M KCl, pH 8.0, 42°C. The data set is classed as biochemical, Haloferax volcanii.

Substrate in data set [2]: Nc1ncnc2c1ncn2[C@@H]1O[C@H](COP(=O)(O)OP(=O)(O)OP(=O)(O)O)[C@@H](O)[C@H]1O
Put plainly: discontinuous PEP formation assay. Format: biochemical, Haloferax volcanii. The conditions noted are these: pyruvate, MgCl2, DTE, 2 M KCl, pH 8.0, 42°C.

Substrate in data set [3]: CC(=O)O
In words: purified protein. Conditions: acetate activation, ATP, CoA, MgCl2, 1 M KCl, pH 7.0, 42°C, pH 7.0.

Substrate in data set [4]: CC(=O)SCCNC(=O)CCNC(=O)[C@H](O)C(C)(C)COP(=O)(O)OP(=O)(O)OC[C@H]1O[C@@H](n2cnc3c(N)ncnc32)[C@H](O)[C@@H]1OP(=O)(O)O
Put plainly: purified protein. The conditions noted are these: acetate formation (reverse), AMP, PPi, MgCl2, 1 M KCl, pH 7.0, 42°C. The data set is classed as biochemical, Haloferax volcanii.

Substrate in data set [5]: CC(C)(COP(=O)(O)OP(=O)(O)OC[C@H]1O[C@@H](n2cnc3c(N)ncnc32)[C@H](O)[C@@H]1OP(=O)(O)O)[C@@H](O)C(=O)NCCC(=O)NCCS
In words: purified protein. Format: biochemical, Haloferax volcanii. The conditions noted are these: acetate activation, ATP, CoA, MgCl2, 1 M KCl, pH 7.0, 42°C.

Substrate in data set [6]: Nc1ncnc2c1ncn2[C@@H]1O[C@H](COP(=O)(O)O)[C@@H](O)[C@H]1O
In words: purified protein. Format: biochemical, Haloferax volcanii. The conditions noted are these: acetate formation (reverse), acetyl-CoA, PPi, MgCl2, 1 M KCl, pH 7.0, 42°C.

Substrate in data set [7]: Nc1ncnc2c1ncn2[C@@H]1O[C@H](COP(=O)(O)OP(=O)(O)OP(=O)(O)O)[C@@H](O)[C@H]1O
Put plainly: purified protein. Format: biochemical, Haloferax volcanii. The conditions noted are these: acetate activation, ATP, CoA, MgCl2, 1 M KCl, pH 7.0, 42°C.

Substrate in data set [8]: NC(=O)c1ccc[n+]([C@@H]2O[C@H](COP(=O)(O)OP(=O)(O)OC[C@H]3O[C@@H](n4cnc5c(N)ncnc54)[C@H](O)[C@@H]3O)[C@@H](O)[C@H]2O)c1
Put plainly: purified protein. The data set is classed as biochemical, Haloferax volcanii. Conditions: 10 mM malate, MnCl2, […] KCl, pH 7.0, 42°C, varied: cofactor.

Substrate in data set [9]: NC(=O)c1ccc[n+]([C@@H]2O[C@H](COP(=O)(O)OP(=O)(O)OC[C@H]3O[C@@H](n4cnc5c(N)ncnc54)[C@H](OP(=O)(O)O)[C@@H]3O)[C@@H](O)[C@H]2O)c1
Put plainly: purified protein. The data set is classed as biochemical, Haloferax volcanii. The conditions noted are these: 10 mM malate, MnCl2, […] KCl, pH 7.0, 42°C, varied: cofactor.

B1: PPS (Haloferax volcanii DS2) (protein)
chain: MAVVWLDDVRADDLDLVGGKGASLGELTGAGLPVPPGFVVTASTYRAFIEDAGIDDELFAAVEVDHEDSEALQAAHETAHDLIMETPMPDDVREEILDAYRSVGEGDAFVAVRSSATAEDLPDASFAGQQETFLNVTEEDLLDRVKECWASLFSERAIYYRNRKGFPHDKVDIAVVVQQMVDAEKSGVMFTRHPSTGKKEIIIEAAWGLGEAVVSGTVSPDNYVVSRETGEVETATIADKKTMCVRDEESGETVMRDVPNGRRHERVLTDDEVSRLLELGELVEDHYEKPQDVEWAVYDGEVYMLQSRPITTIAEGDDGEETESEGDSSGSSRATATGDDVLIRGLGASPGIASGRARIVTKLDHLDQVAEGDIIVTEMTMPDMVPAMKRAAGIVTDEGGMTSHAAIVSRELGVPAVVGTGDGTKTLEDGEVVTIDGDKGTVREGEEPEEKQRQPVEEARPKTPVKPMTATEVKVNVSIPEAAERAAATGADGVGLLRIEHMVLTLGKTPGRFIEQNGERAYVDEIVSGVREAAEEFYPRPVRVRTLDAPTDEFRQLEGGENEPREHNPMLGYRGIRRGLDNPSVFRLELQAFRRLFDMGYDNLEVMFPLVNDAEDVLRAKEHMREAGIDPEKREWGVMIETPAAALCIEELADAGIDFASFGTNDLTQYTLAVDRNNEHVADIYDELHPAVLKLIGDTIETCREVGVKTSICGQAGSKPKMVQFLVDKGVSSISANIDAVRDVQHEVKRVEQRLLLDSVR
notes: full length, Ni-NTA purified, homologous expression in H. volcanii
As for B1, the Km (commonly the substrate concentration at which the rate is half of its maximum) in data set [1] turned out to be 270 µM; in data set [2], 360 µM.

B2: ACS7 (Haloferax volcanii DS2) (protein)
chain: MAQGDAELEARLAEQDEFEPTEEFVAQANVSDAGIYDEFEENWPDCWERAADLLDWDADYDEVLDDSNPPFYEWFTGGELNACYNCVDRHVENGDKNRVAIKWEGEHGETRTYTYQDLYREVNEFAAALRDLGVEEDDVVTLYMPMVPELPIAMLACARIGAPHNVVFAGFSAEALATRMNAADSRFLVTCDGYYRRGDPLDHLDKTNEGLDSVDHGVDATVVVDRLGDDGFDHDLKGNQHDWDDLLEAQSGERVAPVERDAEDMLFLMYTSGTTGQPKGVKHTTGGYLSYATWTSHAVLDIETEDTYWCSADIGWITGHSYIVYGPLALGSTTVMYEGTPDFPNRDRMWELVEKYAVDIFYTAPTAIRAFMKWGSKYPESRDLSSLRLLGTVGEPINPRAWKWYYEHIGNENCPVVDTWWQTETGGMMITTLPGVKNMKPGSAGPPLPGIDAQIVDTDGDEVEPGRAGYLTVNKPWPGMLRTLYDNDERYISEYWAEYSDTDSDDPDDWVYFPEDGAKVDEDGYITVLGRVDDVINVSGHRLGTMEIESAIVGVEGVAEAAVVGGNHEVKGEAVYAYVITEDGYEEGEDLRARIVEGVEDAIGPIARPEQVVFTPELPKTRSGKIMRRLLEDVANGAELGNTSTLRNPEIVGEIEAKVRAQSD
notes: full length, Ni-NTA purified (pTA963), homologous expression in H. volcanii H1209
With B2, the Km in data set [3] came to 840 µM; in [4], 150 µM; in data set [5], 230 µM; in data set [6] it was 90 µM; in data set [7], 590 µM. For the same protein, the maximal velocity (Vmax) – broadly, the top rate of the reaction or transport when substrate is in excess – in [3] came to 26.1 µmol/min/mg; in [4] it was 6.2 µmol/min/mg.

B3: Mae2 (Haloferax volcanii DS2) (protein)
chain: MTLGDDARDYHRRPPAGKVEIATTKPTNTQRDLSLAYSPGVAAPCRDIAEDENAAYEYTAKGNLVGVVSNGSAVLGLGDIGAQASKPVMEGKGVLFKRFADIDVFDVEFDHDDPQAFVESVAAMEPTFGGINLEDIRAPECFEIEESLRERMDIPVFHDDQHGTAIISGAALLNAADIADKELSSLNVTFSGAGAAATATARFYVSLGIPHENITLCDIDGVLSESRAEAGELDEYAEPFARGVDDGDLEDAMEGADVLVGLSVGGIVSQETVRSMADDPIIFAMANPEPEIAYEDAKEARDDTVIMATGRSDYPNQVNNVLGFPFIFRGALDVRATEINEEMKRAAAEALANLARQDVPDAVVKAYGDGPLQFGPDYLIPKPLDQRVLYEVTPAVAEAAMKSGAARRERDLDDYREELEARLGKSREMMRVVLNKAASNPKRVVLAEGEDEKMIRAASQLVEEGIAEPILVGRTKEILRTAEDLGLDFDPTIADPESGEWNHYVDHLYERRQRKGLTRTEAAELVRGDSNYFASVMVEVGDADAMLTGLTHHYPSALRPPLQIIGTADDADYAAGVYMLTFRNRVIFCADATVNLDPDENVLAEVTKHTAELARRFNVEPRAALLSYSDFGSVTNEGTRKPRNAVEQLHADPDVDFPVDGEMQADTALVEEMLTDTYDFAELDDPANVLVFPNLEAGNIGYKLLQRLGGAEAIGPMLVGMDKPVHVLQRGDEVKDIVNLAGVAVVDAQSE
notes: full length with C-terminal PTA domain, Ni-NTA purified, homologous expression in H. volcanii; 530 kDa, subunit 81 kDa
As for B3, the Km in data set [8] amounted to 150 µM; in data set [9], 100 µM.
